Results as given in patent publication US7022323.

Legend:
[1] = target: DC-SIGN (Dendritic Cell-Specific Intercellular adhesion molecule 3-Grabbing Nonintegrin), human, expressed on HeLa-DC-SIGN cells (homo sapien) (UniProt Q9NNX6); test: flow cytometry on HeLa-DC-SIGN cells
[2] = target: DC-SIGNR (DC-SIGN Related), human, expressed on HeLa-DC-SIGN-R cells (homo sapien) (UniProt Q9H2X3); test: flow cytometry on HeLa-DC-SIGN-R cells
Sequence of DC-SIGNR (DC-SIGN Related), human, expressed on HeLa-DC-SIGN-R cells (homo sapien) (Q9H2X3 whole entry C368X): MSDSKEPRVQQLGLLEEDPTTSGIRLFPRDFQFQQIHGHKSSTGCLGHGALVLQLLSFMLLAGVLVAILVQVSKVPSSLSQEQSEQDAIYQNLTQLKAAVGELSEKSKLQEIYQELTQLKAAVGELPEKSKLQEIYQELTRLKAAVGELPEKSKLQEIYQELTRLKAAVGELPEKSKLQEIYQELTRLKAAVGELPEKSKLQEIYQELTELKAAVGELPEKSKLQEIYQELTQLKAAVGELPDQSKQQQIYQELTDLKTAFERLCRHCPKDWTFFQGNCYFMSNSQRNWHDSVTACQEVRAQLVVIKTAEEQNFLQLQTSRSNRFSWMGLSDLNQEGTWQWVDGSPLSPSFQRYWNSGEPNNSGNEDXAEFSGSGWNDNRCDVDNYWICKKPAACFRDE

Sequence of DC-SIGN (Dendritic Cell-Specific Intercellular adhesion molecule 3-Grabbing Nonintegrin), human, expressed on HeLa-DC-SIGN cells (homo sapien) (Q9NNX6 whole entry): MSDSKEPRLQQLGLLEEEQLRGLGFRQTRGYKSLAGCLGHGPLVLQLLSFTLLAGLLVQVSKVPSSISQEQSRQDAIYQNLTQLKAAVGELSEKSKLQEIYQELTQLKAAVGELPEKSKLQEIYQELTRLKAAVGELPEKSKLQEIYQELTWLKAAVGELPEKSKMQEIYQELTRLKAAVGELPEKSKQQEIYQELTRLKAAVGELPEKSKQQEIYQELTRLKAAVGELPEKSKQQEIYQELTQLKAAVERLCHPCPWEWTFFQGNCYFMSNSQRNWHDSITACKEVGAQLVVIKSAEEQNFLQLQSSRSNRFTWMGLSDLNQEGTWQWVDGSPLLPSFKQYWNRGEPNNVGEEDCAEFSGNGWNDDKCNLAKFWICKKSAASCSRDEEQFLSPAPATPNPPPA

% Positive Cells [1] [%]	Mean fluorescence intensity [1]	% Positive Cells [2] [%]	Mean fluorescence intensity [2]	Substance
90.6	81.1	3.5	17.1	120507 (507D), DC-SIGN-specific mouse IgG2b mAb (BD Pharmingen) (antibody)
1.1	14.2	96	129	120604 (604L), DC-SIGN-R-specific mouse IgG2b mAb (BD Pharmingen) (antibody)
67.3	46.6	94.8	102	120612 (612X), mouse IgG2a mAb that recognizes both DC-SIGN and DC-SIGN-R (BD Pharmingen) (antibody)
1	16.9	2.8	13.7	Isotype control (antibody)
